Key:
human FOLR1 protein = biological target: T1, human FOLR1 protein (Homo sapiens, UniProt P15328); assay: ELISA binding to human FOLR1 protein
T1 construct: His tag; purchased ACRO FO1-H52H1
Experimental: (§1) The ability of the antibodies to bind to human FOLR1 protein or to cross binding to cynomolgus FOLR1 protein was tested by standard ELISA. Briefly, the human FOLR1 (ACRO-FO1-H52H1) or cynomolgus FOLR1 protein (ACRO, F01-C52H8) with a His tag was diluted to 5 μg/ml with a carbonic acid coating solution at pH 9.6 and 100 μL antigen was coated in each well of 96-well microtiter plate at 4° C. overnight. The liquid in the wells was discarded and the wells were washed three times with PBST. The wells were then blocked with 4% skim milk powder-PBS (Sigma, D5652-1 L), using 300 μL/well and the plates incubated in 37° C. for 1 hour. The liquid in the wells was discarded, and the well were washed three times with PBS. Samples were added using 100 μL/well; PBS was added in the control group. The plates were incubated at 37° C. for 1 hour. The liquid in the wells was discarded and the wells were washed three times with PBST. HRP-goat anti-human IgG (Sigma, 118885-2ML) was added (with 1:5000 dilution, 100 μL/well) and the plates were incubated in 37° C. for 1 hour. Then the liquid in the wells was discarded, and the wells were washed five times with PBST. A TMB solution was added using 100 μL/well. 2M H2SO4 was added to each well using 50 μL to terminate the reaction after […]. The A450 values were read using a microplate reader.

cynomolgus FOLR1 protein = assay: ELISA cross binding to cynomolgus FOLR1 protein
Experimental: as §1

T1 sequence (P15328 25-234): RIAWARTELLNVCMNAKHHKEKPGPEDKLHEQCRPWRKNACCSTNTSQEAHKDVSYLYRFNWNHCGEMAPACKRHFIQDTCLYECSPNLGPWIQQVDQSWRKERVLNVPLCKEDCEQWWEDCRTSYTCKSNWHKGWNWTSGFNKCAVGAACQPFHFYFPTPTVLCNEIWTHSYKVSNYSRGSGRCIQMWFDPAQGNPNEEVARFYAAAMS

B1: F40: anti-FOLR1 antibody clone: "Clone F40 has a different HCDRs and LCDRs, and with different HFR and LFR" (antibody, V domains shown)
VH: EVQLLESGGGVVQPGRSLRLSCAASGFTFSSYAMHWVRQAPGKGLEWVAVISYDGSNKYYADSVKGRFIISRDNSKNTVYLQMNSLRAEDTAVYYCARPTYVFTYTGSSFDYWGQGTQVTVSS
VL: DIQVTQSPSSLSASLGDTVSITCRASRGLTDSVAWYQQKPGQAPKLLIYAASTLQSGVPSRFGGSGSGSYFTLTITSLQPEDVATYYCQNYKSAPWTFGQGTKVEIK
Human FOLR1 protein; supernatant diluted 1x
  OD450, Target: Human FOLR1 Protein His Tag, Diluted 1x: 0.811 OD450
Human FOLR1 protein; supernatant diluted 5x
  OD450, Target: Human FOLR1 Protein His Tag, Diluted 5x: 0.382 OD450
Human FOLR1 protein; supernatant diluted 25x
  OD450, Target: Human FOLR1 Protein His Tag, Diluted 25x: 0.163 OD450
Human FOLR1 protein; transfection supernatant, ELISA
  Target binding, coating with Human FOLR1 Protein: 2.3860 OD450
Cynomolgus FOLR1 protein; supernatant diluted 1x
  OD450, Target: Cynomolgus/Rhesus macaque FOLR1, Protein, His Tag, Diluted 1x: 1.354 OD450
Cynomolgus FOLR1 protein; supernatant diluted 5x
  OD450, Target: Cynomolgus/Rhesus macaque FOLR1, Protein, His Tag, Diluted 5x: 1.111 OD450
Cynomolgus FOLR1 protein; supernatant diluted 25x
  OD450, Target: Cynomolgus/Rhesus macaque FOLR1, Protein, His Tag, Diluted 25x: 0.924 OD450
